The source of these data is the supplement of paper PMC9428881.

± gives the standard error.

This data set is described as follows: background-corrected fluorescence of 3'-dye-labeled ssDNA relative to brightest sequence (3'-GCGCG) (fraction); higher = brighter dye fluorescence (less quenching). The method, boiled down: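 Arrays of single-stranded DNA, with a 3' Cy3 or Cy5 dye beside each of 1024 permuted pentamers, were built on glass slides through light-directed phosphoramidite synthesis. They were washed for 2 h at r.t. in acetonitrile and scanned at 532 or 635 nm, once before and once after overnight ethylenediamine/ethanol deprotection. Fluorescence is reported after subtracting unlabeled-oligo background and normalizing to the brightest sequence. Averages cover 10 features per array and at least 3 syntheses.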

Regarding “TTTTTTGCGCATGCGCATCATTTTTTTTTTTTTTTATATG [GTATA]”, the background-corrected fluorescence (dye: Cy3 (3' terminal)) was found to be 0.531 ± 0.013 and the background-corrected fluorescence (dye: Cy5 (3' terminal)) was 0.407 ± 0.024.
For “TTTTTTGCGCATGCGCATGATTTTTTTTTTTTTTTATATC [CTATA]”, the background-corrected fluorescence amounted to 0.438 ± 0.025 (dye: Cy3 (3' terminal)) and 0.322 ± 0.017 (dye: Cy5 (3' terminal)).
In the case of “TTTTTTGCGCATGCGCATGCTTTTTTTTTTTTTTTATATA”, the background-corrected fluorescence is, setting by setting: (dye: Cy3 (3' terminal)) 0.537 ± 0.034; (dye: Cy5 (3' terminal)) 0.431 ± 0.042.
On to “TTTTTTGCGCATGCTCAGCATTTTTTTTTTTTTTTATAGT [TGATA]”, for which the background-corrected fluorescence reads like this: (dye: Cy3 (3' terminal)) 0.587 ± 0.029; (dye: Cy5 (3' terminal)) 0.482 ± 0.041.
For “TTTTTTGCGCATGCTCATCATTTTTTTTTTTTTTTATAGG [GGATA]”, the background-corrected fluorescence was found to be 0.628 ± 0.019 (dye: Cy3 (3' terminal)) and 0.516 ± 0.03 (dye: Cy5 (3' terminal)).
Consider “TTTTTTGCGCATGCTCATGATTTTTTTTTTTTTTTATAGC [CGATA]”, for which the background-corrected fluorescence is, setting by setting: (dye: Cy3 (3' terminal)) 0.519 ± 0.027; (dye: Cy5 (3' terminal)) 0.407 ± 0.031.
In the case of “TTTTTTGCGCATGCTCATGCTTTTTTTTTTTTTTTATAGA [AGATA]”, the background-corrected fluorescence reads like this: (dye: Cy3 (3' terminal)) 0.602 ± 0.037; (dye: Cy5 (3' terminal)) 0.489 ± 0.045.
On to “TTTTTTGCGCATGCTGAGCATTTTTTTTTTTTTTTATACT [TCATA]”, for which the background-corrected fluorescence is, setting by setting: (dye: Cy3 (3' terminal)) 0.504 ± 0.024; (dye: Cy5 (3' terminal)) 0.378 ± 0.019.
In the case of “TTTTTTGCGCATGCTGATCATTTTTTTTTTTTTTTATACG [GCATA]”, the background-corrected fluorescence reads like this: (dye: Cy3 (3' terminal)) 0.574 ± 0.022; (dye: Cy5 (3' terminal)) 0.43 ± 0.029.
For “TTTTTTGCGCATGCTGATGATTTTTTTTTTTTTTTATACC [CCATA]”, in that order: 0.411 ± 0.027 and 0.295 ± 0.018.
“TTTTTTGCGCATGCTGATGCTTTTTTTTTTTTTTTATACA [ACATA]”: the background-corrected fluorescence (dye: Cy3 (3' terminal)) was determined as 0.492 ± 0.031 and the background-corrected fluorescence (dye: Cy5 (3' terminal)) was 0.372 ± 0.024.
In the case of “TTTTTTGCGCATGCTGCGCATTTTTTTTTTTTTTTATAAT [TAATA]”, the background-corrected fluorescence stood at 0.567 ± 0.0072 (dye: Cy3 (3' terminal)) and 0.418 ± 0.026 (dye: Cy5 (3' terminal)).
Consider “TTTTTTGCGCATGCTGCTCATTTTTTTTTTTTTTTATAAG [GAATA]”, for which the background-corrected fluorescence runs as follows: (dye: Cy3 (3' terminal)) 0.532 ± 0.019; (dye: Cy5 (3' terminal)) 0.429 ± 0.031.
For “TTTTTTGCGCATGCTGCTGATTTTTTTTTTTTTTTATAAC [CAATA]”, in that order: 0.434 ± 0.032 and 0.327 ± 0.023.
For “TTTTTTGCGCATGCTGCTGCTTTTTTTTTTTTTTTATAAA [AAATA]”, in that order: 0.567 ± 0.044 and 0.507 ± 0.069.
On to “TTTTTTGCTCAGCAGCAGCATTTTTTTTTTTTTTTAGTTT [TTTGA]”, for which the background-corrected fluorescence (dye: Cy3 (3' terminal)) came out at 0.577 ± 0.017 and the background-corrected fluorescence (dye: Cy5 (3' terminal)) was 0.404 ± 0.022.
“TTTTTTGCTCAGCAGCATCATTTTTTTTTTTTTTTAGTTG [GTTGA]”: the background-corrected fluorescence worked out at 0.516 ± 0.037 (dye: Cy3 (3' terminal)) and 0.408 ± 0.034 (dye: Cy5 (3' terminal)).
For “TTTTTTGCTCAGCAGCATGATTTTTTTTTTTTTTTAGTTC [CTTGA]”, the background-corrected fluorescence reads like this: (dye: Cy3 (3' terminal)) 0.433 ± 0.023; (dye: Cy5 (3' terminal)) 0.335 ± 0.025.
As for “TTTTTTGCTCAGCAGCATGCTTTTTTTTTTTTTTTAGTTA [ATTGA]”, the background-corrected fluorescence reads like this: (dye: Cy3 (3' terminal)) 0.57 ± 0.0086; (dye: Cy5 (3' terminal)) 0.409 ± 0.016.
For “TTTTTTGCTCAGCATCAGCATTTTTTTTTTTTTTTAGTGT [TGTGA]”, in that order: 0.572 ± 0.021 and 0.474 ± 0.033.
Regarding “TTTTTTGCTCAGCATCATCATTTTTTTTTTTTTTTAGTGG [GGTGA]”, the background-corrected fluorescence came out at 0.625 ± 0.034 (dye: Cy3 (3' terminal)) and 0.546 ± 0.076 (dye: Cy5 (3' terminal)).
Consider “TTTTTTGCTCAGCATCATGATTTTTTTTTTTTTTTAGTGC [CGTGA]”, for which the background-corrected fluorescence reads like this: (dye: Cy3 (3' terminal)) 0.518 ± 0.047; (dye: Cy5 (3' terminal)) 0.405 ± 0.024.
On to “TTTTTTGCTCAGCATCATGCTTTTTTTTTTTTTTTAGTGA”, for which the background-corrected fluorescence stood at 0.645 ± 0.022 (dye: Cy3 (3' terminal)) and 0.536 ± 0.037 (dye: Cy5 (3' terminal)).
For “TTTTTTGCTCAGCATGAGCATTTTTTTTTTTTTTTAGTCT [TCTGA]”, in that order: 0.472 ± 0.018 and 0.368 ± 0.029.
For “TTTTTTGCTCAGCATGATCATTTTTTTTTTTTTTTAGTCG [GCTGA]”, the background-corrected fluorescence is, setting by setting: (dye: Cy3 (3' terminal)) 0.579 ± 0.024; (dye: Cy5 (3' terminal)) 0.444 ± 0.036.
The matching figures for “TTTTTTGCTCAGCATGATGATTTTTTTTTTTTTTTAGTCC [CCTGA]”: 0.41 ± 0.024 and 0.329 ± 0.04.
On to “TTTTTTGCTCAGCATGATGCTTTTTTTTTTTTTTTAGTCA [ACTGA]”, for which the background-corrected fluorescence (dye: Cy3 (3' terminal)) was found to be 0.529 ± 0.013 and the background-corrected fluorescence (dye: Cy5 (3' terminal)) came to 0.407 ± 0.029.
Regarding “TTTTTTGCTCAGCATGCGCATTTTTTTTTTTTTTTAGTAT [TATGA]”, the background-corrected fluorescence came to 0.554 ± 0.031 (dye: Cy3 (3' terminal)) and 0.417 ± 0.028 (dye: Cy5 (3' terminal)).
Regarding “TTTTTTGCTCAGCATGCTCATTTTTTTTTTTTTTTAGTAG [GATGA]”, the background-corrected fluorescence is, setting by setting: (dye: Cy3 (3' terminal)) 0.605 ± 0.054; (dye: Cy5 (3' terminal)) 0.46 ± 0.032.
